From doi:10.1101/2025.10.20.683367

How the values were obtained:
[1] = biological target: Methanoculleus sp. schizorhodopsin (Methanoculleus sp. (metagenome-assembled genome)); experiment: cryo-EM structure
[2] = biological target: Methanoculleus taiwanensis schizorhodopsin (Methanoculleus taiwanensis); experiment: cryo-EM structure

Substance | stoichiometry N [1] | stoichiometry N [2]
Methanoculleus sp. schizorhodopsin (natural protein) | 3 | –
Methanoculleus taiwanensis schizorhodopsin (natural protein) | – | 3
